The assay deals with murine GM-CSF receptor (on FDC-P1 cells) (murine) (UniProt Q00941). The assay can be described thus: cell-based or functional assay.
Chain of UniProt Q00941 (Q00941 30-388, chain 1 of 2): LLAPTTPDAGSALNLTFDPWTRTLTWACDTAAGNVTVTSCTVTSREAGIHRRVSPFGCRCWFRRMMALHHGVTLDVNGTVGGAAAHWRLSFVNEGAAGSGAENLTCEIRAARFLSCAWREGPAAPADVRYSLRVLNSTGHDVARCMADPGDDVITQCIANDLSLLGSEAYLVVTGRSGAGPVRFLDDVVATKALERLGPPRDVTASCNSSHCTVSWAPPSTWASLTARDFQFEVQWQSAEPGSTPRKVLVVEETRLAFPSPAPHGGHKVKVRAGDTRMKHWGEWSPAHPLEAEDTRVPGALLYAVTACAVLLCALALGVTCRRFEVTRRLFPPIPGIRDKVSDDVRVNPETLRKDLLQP
Chain of UniProt Q00941 (P26955 23-896, chain 2 of 2, further chain): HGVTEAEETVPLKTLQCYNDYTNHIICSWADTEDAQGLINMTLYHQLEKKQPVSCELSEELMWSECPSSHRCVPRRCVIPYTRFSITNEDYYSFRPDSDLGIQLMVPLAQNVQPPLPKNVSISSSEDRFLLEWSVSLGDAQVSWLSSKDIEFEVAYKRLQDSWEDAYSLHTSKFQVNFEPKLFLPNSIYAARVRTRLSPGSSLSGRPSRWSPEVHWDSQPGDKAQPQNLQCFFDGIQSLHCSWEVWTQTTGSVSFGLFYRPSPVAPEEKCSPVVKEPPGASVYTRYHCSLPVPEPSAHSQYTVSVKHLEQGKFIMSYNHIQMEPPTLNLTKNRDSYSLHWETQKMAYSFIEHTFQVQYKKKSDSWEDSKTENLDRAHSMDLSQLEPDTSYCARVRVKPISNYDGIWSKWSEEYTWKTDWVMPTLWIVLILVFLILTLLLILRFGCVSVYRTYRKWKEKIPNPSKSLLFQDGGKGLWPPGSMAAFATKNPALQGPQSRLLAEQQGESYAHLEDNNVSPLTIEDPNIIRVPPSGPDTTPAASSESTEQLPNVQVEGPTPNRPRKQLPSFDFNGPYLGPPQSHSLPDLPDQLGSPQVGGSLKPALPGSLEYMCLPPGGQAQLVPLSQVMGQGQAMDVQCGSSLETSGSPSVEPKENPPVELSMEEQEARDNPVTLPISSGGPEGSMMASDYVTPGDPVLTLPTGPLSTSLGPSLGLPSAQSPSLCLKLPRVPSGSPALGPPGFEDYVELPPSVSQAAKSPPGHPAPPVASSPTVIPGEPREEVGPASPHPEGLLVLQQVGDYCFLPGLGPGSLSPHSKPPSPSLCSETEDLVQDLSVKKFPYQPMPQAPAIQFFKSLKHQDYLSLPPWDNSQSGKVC

“GPI-GM-CSF (murine GM-CSF fused to the S. cerevesiae Gas1 GPI modification signal sequence) (from UniProt P01587 18-141; P22146 474-528) (ligand; the values are: proliferation increase over soluble GM-CSF)” registered a proliferation of FDC-P1 cells (Biotrak Cell Proliferation ELISA, BrdU) of 25%.

(Values after patent US20040091503A1.)
